B1: OR4K15 (parent)
chain: GUUAACGGUCAUAGGCCAUGGAAACUAGGAGCACCAUUUCGCUGCCAGUGAAGAAAUGAACAAAGAAAAUCUGGGCCAGGCAGGCAUCAAAAGAAAUAGUCUUGCGCUCAACCAGAAAGUCUGUAAUCAUUUUAAGGGUA

Variants of: B1
Assay: self-cleavage, relative activity (ratio to wild type); higher = more cleavage; in vitro, sequencing; the parent is a self-cleaving ribozyme

Variant | self-cleavage
GUUAACGGUCAUAGGCCAUGGAAACUAGGAGCACCAUUUCGCUGCCAGUGUAGAAAUGAACAAAGAAAAUCUGGGCCAGGCAGGCAACAAAAGAAAUAGUCUUGCGCUCAACCAGAAAGUCUGUAAUCAUUUUAAGGGUA [A51U U87A] | 1.92
GUUAACGGUCAUAGGCCAUGGAAACUAGGAGCACCAUUUCGCUGCCAGUGACGAAAUGAGCAAAGAAAAUCUGGGCCAGGCAGGCAUCAAAAGAAAUAGUCUUGCGCUCAACCAGAAAGUCUGUAAUCAUUUUAAGGGUA [A52C A60G] | 1
GUUAACGGUCAUAGGCCAUGGAAACUAGGAGCACCAUUUCGCUGCCAGUGACGAAAUGAACAAAGAAAAUCUGGGCCAGGCAGGCAUCAAAAGAAAUAGUCUUGCGCUCAGCCAGAAAGUCUGUAAUCAUUUUAAGGGUA [A52C A111G] | 0
GUUAACGGUCAUAGGCCAUGGAAACUAGGAGCACCAUUUCGCUGCCAGUGUAGAAAUGAACAAAGAAAAUCUGGGUCAGGCAGGCAUCAAAAGAAAUAGUCUUGCGCUCAACCAGAAAGUCUGUAAUCAUUUUAAGGGUA [A51U C76U] | 0.33
GUUAACGGUCAUAGGCCAUGGAAACUAGGAGCACCAUUUCGCUGCCAGUGUAGAAAGGAACAAAGAAAAUCUGGGCCAGGCAGGCAUCAAAAGAAAUAGUCUUGCGCUCAACCAGAAAGUCUGUAAUCAUUUUAAGGGUA [A51U U57G] | 0.64
GUUAACGGUCAUAGGCCAUGGAAACUAGGAGCACCAUUUCGCUGCCAGUGUAGAAAUGAACAAAGAAAAUCUGGGCCAGGCAGGCAUCAAAAGAAAUAGUCUUGCGCUCAACCAGAAAGUCUGUAAUCAUAUUAAGGGUA [A51U U131A] | 1.32
GUUAACGGUCAUAGGCCAUGGAAACUAGGAGCACCAUUUCGCUGCCAGUGUAGAAAUGAACAAAGAAAAUCAGGGCCAGGCAGGCAUCAAAAGAAAUAGUCUUGCGCUCAACCAGAAAGUCUGUAAUCAUUUUAAGGGUA [A51U U72A] | 0.45
GUUAACGGUCAUAGGCCAUGGAAACUAGGAGCACCAUUUCGCUGCCAGUGUAGAAAUGAACAAAGAAAAUCCGGGCCAGGCAGGCAUCAAAAGAAAUAGUCUUGCGCUCAACCAGAAAGUCUGUAAUCAUUUUAAGGGUA [A51U U72C] | 0.23
GUUAACGGUCAUAGGCCAUGGAAACUAGGAGCACCAUUUCGCUGCCAGUGUAGAAAUGAACAAAGAAAAUCUGGGCCAGGCAAGCAUCAAAAGAAAUAGUCUUGCGCUCAACCAGAAAGUCUGUAAUCAUUUUAAGGGUA [A51U G83A] | 2.1
GUUAACGGUCAUAGGCCAUGGAAACUAGGAGCACCAUUUCGCUGCCAGUGACGAAAUGAACAAGGAAAAUCUGGGCCAGGCAGGCAUCAAAAGAAAUAGUCUUGCGCUCAACCAGAAAGUCUGUAAUCAUUUUAAGGGUA [A52C A64G] | 1.38
GUUAACGGUCAUAGGCCAUGGAAACUAGGAGCACCAUUUCGCUGCCAGUGUAGAAAUGAACAAAGAAAAUCUGGGCCAGGCAGGCAUCAAAAGAAAUAGUCUUGCGCUCAACCAGAGAGUCUGUAAUCAUUUUAAGGGUA [A51U A117G] | 2.45
GUUAACGGUCAUAGGCCAUGGAAACUAGGAGCACCAUUUCGCUGCCAGUGUAGAAAUGAACAAAGAAAAUCUGGGCCAGGCAGGCAUCAAAAGAAAUAGUCUUGCGCUCAACCAGAAAGUCUGUAAUCAUUCUAAGGGUA [A51U U132C] | 1.06
GUUAACGGUCAUAGGCCAUGGAAACUAGGAGCACCAUUUCGCUGCCAGUGUAGAAAUGAACAAAGAAAAUCUGGGCCAGGCAGGCAUCAAAAGAAAUAGUCUUGCGCUCAACCAGAAAGUCUGUAAUCAUUGUAAGGGUA [A51U U132G] | 1.49
GUUAACGGUCAUAGGCCAUGGAAACUAGGAGCACCAUUUCGCUGCCAGUGACGAAAUGAACAAAGAAAAUCUGGGCCAGGCAGGCAUCAAAAGAAAUAGUCUUGCGCUCAACCAGAAAGUCUGUAAUCGUUUUAAGGGUA [A52C A129G] | 0.62
GUUAACGGUCAUAGGCCAUGGAAACUAGGAGCACCAUUUCGCUGCCAGUGUAGAAAUGAACAAAGAAAAUCUGGGCCAGGCAGGCAUCAAAAGAAAUAGCCUUGCGCUCAACCAGAAAGUCUGUAAUCAUUUUAAGGGUA [A51U U100C] | 2.13
GUUAACGGUCAUAGGCCAUGGAAACUAGGAGCACCAUUUCGCUGCCAGUGACGGAAUGAACAAAGAAAAUCUGGGCCAGGCAGGCAUCAAAAGAAAUAGUCUUGCGCUCAACCAGAAAGUCUGUAAUCAUUUUAAGGGUA [A52C A54G] | 1.34
GUUAACGGUCAUAGGCCAUGGAAACUAGGAGCACCAUUUCGCUGCCAGUGUAGAAAUGAACAAAGAAAAUCUGGGCCAGGCAGGCAUCAAAAGAAAUAGUCUUGCGCUCAACCAGAAAGCCUGUAAUCAUUUUAAGGGUA [A51U U120C] | 0.47
GUUAACGGUCAUAGGCCAUGGAAACUAGGAGCACCAUUUCGCUGCCAGUGACGAAAUGAACAAAGAAAAUCUGGGCCAGGCAGGCAUCAGAAGAAAUAGUCUUGCGCUCAACCAGAAAGUCUGUAAUCAUUUUAAGGGUA [A52C A90G] | 0.58
GUUAACGGUCAUAGGCCAUGGAAACUAGGAGCACCAUUUCGCUGCCAGUGACGAAAUGAACAAAGAAAAUCUGGGCCAGGCAGGCAUCAAAAGAAAUAGUCUUGCGCCCAACCAGAAAGUCUGUAAUCAUUUUAAGGGUA [A52C U108C] | 0.03
GUUAACGGUCAUAGGCCAUGGAAACUAGGAGCACCAUUUCGCUGCCAGUGUAGAAAUUAACAAAGAAAAUCUGGGCCAGGCAGGCAUCAAAAGAAAUAGUCUUGCGCUCAACCAGAAAGUCUGUAAUCAUUUUAAGGGUA [A51U G58U] | 1.45
GUUAACGGUCAUAGGCCAUGGAAACUAGGAGCACCAUUUCGCUGCCAGUGUAGAAAUGAACAAAGAAAAUCUGGGCCAGGCAGGCAUCAAAAGAAAUAGUCCUGCGCUCAACCAGAAAGUCUGUAAUCAUUUUAAGGGUA [A51U U102C] | 1.99

Variant | self-cleavage
GUUAACGGUCAUAGGCCAUGGAAACUAGGAGCACCAUUUCGCUGCCAGUGACGAAAUGAACAAAGAAAAUCUGGGCCAGGCAGGCAUCAAAAGAAAUAGUCUUGCGCUCAACCAGAAGGUCUGUAAUCAUUUUAAGGGUA [A52C A118G] | 0.72
GUUAACGGUCAUAGGCCAUGGAAACUAGGAGCACCAUUUCGCUGCCAGUGACGAAAUGAACAAAGAAAAUCUGGGCCAGGCAGGCAUCAAAAGAAAUAGUCUUGCGCUCAACCAGAAAGUCUGUAAUCAUUUUAAGGGUG [A52C A140G] | 1.87
GUUAACGGUCAUAGGCCAUGGAAACUAGGAGCACCAUUUCGCUGCCAGUGUAGAAAUGAACAAAGAAAAUCUGGGCCAGGCAGGCAUCAAAAGAAAUAGUCUUGCGCUCAACCAGAAAGUCUGUAAUCACUUUAAGGGUA [A51U U130C] | 1.62
GUUAACGGUCAUAGGCCAUGGAAACUAGGAGCACCAUUUCGCUGCCAGUGUAGAAAUGAACAAAGAAAAUCUGGGCCAGGCAGGCAUCAAAAGAAAUAGUCUUGCGCUCAACCAGAAAGUCUGUAAUCAAUUUAAGGGUA [A51U U130A] | 1.4
GUUAACGGUCAUAGGCCAUGGAAACUAGGAGCACCAUUUCGCUGCCAGUGACGAAAUGAACAAAGAAGAUCUGGGCCAGGCAGGCAUCAAAAGAAAUAGUCUUGCGCUCAACCAGAAAGUCUGUAAUCAUUUUAAGGGUA [A52C A68G] | 0.55
GUUAACGGUCAUAGGCCAUGGAAACUAGGAGCACCAUUUCGCUGCCAGUGUAGAAAUGAACAAAGAAAAUCUGGGCCAGGCAGGCAUCAAAAGAAAUAGUCUUGCGCUCAACCAGAAAGUCUGUAACCAUUUUAAGGGUA [A51U U127C] | 0.76
GUUAACGGUCAUAGGCCAUGGAAACUAGGAGCACCAUUUCGCUGCCAGUGUAGAAAUGAACAAAGAAAAUCUGGGCCAGGCAGGCAUCAAAAGAAAUAGUCUUGCGCUCAACCAGAAAGUCUGUAAACAUUUUAAGGGUA [A51U U127A] | 1.75
GUUAACGGUCAUAGGCCAUGGAAACUAGGAGCACCAUUUCGCUGCCAGUGUAGAAAUGAACAAAGAAAAUCUGGGCCAGGCAGGCAUCAAAAGAAAUAGUCUUGCGCUCAACCAGAAAGUCUGUAAUCAUUUUAAGAGUA [A51U G137A] | 1.43
GUUAACGGUCAUAGGCCAUGGAAACUAGGAGCACCAUUUCGCUGCCAGUGUAGAAAUGAACAAAGAAAAUCUGGGCCAGGCAGGCAUCAAAAGAAAUAGUCUUGCGCUCAACCAGAAAGUCUGUGAUCAUUUUAAGGGUA [A51U A125G] | 0.42
GUUAACGGUCAUAGGCCAUGGAAACUAGGAGCACCAUUUCGCUGCCAGUGUAGAAAUGAACAAAGAAAAUCUGGGCCAGGCAGGCAUCAAAAGAAAUAGUCUUGCGCUCAACCAGAAAGUCUGUUAUCAUUUUAAGGGUA [A51U A125U] | 1.64
GUUAACGGUCAUAGGCCAUGGAAACUAGGAGCACCAUUUCGCUGCCAGUGACGAAAUGAACAAAGAAAAUCUGGGCCAGGCAGGCAUCAAAAGAAAUAGUCUUGCGCUCAACCAGAGAGUCUGUAAUCAUUUUAAGGGUA [A52C A117G] | 1.22
GUUAACGGUCAUAGGCCAUGGAAACUAGGAGCACCAUUUCGCUGCCAGUGACGAAAUGAACAAAGAAAAUCUGGGCCAGGCAGGCAUCAAGAGAAAUAGUCUUGCGCUCAACCAGAAAGUCUGUAAUCAUUUUAAGGGUA [A52C A91G] | 1.96
GUUAACGGUCAUAGGCCAUGGAAACUAGGAGCACCAUUUCGCUGCCAGUGACGAAAUGAACAAAGAAAAUCUGGGCCAGGCAGGCAUCAAAAGAAAUAGUCUUGCGCUCAACCAGAAAGCCUGUAAUCAUUUUAAGGGUA [A52C U120C] | 0.58
GUUAACGGUCAUAGGCCAUGGAAACUAGGAGCACCAUUUCGCUGCCAGUGACGAAAUGAACAAAGAAAAUCUGGUCCAGGCAGGCAUCAAAAGAAAUAGUCUUGCGCUCAACCAGAAAGUCUGUAAUCAUUUUAAGGGUA [A52C G75U] | 0.33
GUUAACGGUCAUAGGCCAUGGAAACUAGGAGCACCAUUUCGCUGCCAGUGUAGAAAUGAACAAAGAAAAUCUGGGCCAGGCAGGCAUCAAAAGAGAUAGUCUUGCGCUCAACCAGAAAGUCUGUAAUCAUUUUAAGGGUA [A51U A95G] | 2
GUUAACGGUCAUAGGCCAUGGAAACUAGGAGCACCAUUUCGCUGCCAGUGUAGAAAUGAACAAAGAAAAUCUGGGCCAGGCAGGCAUCAAAAGAAAUAGUCUUGCGCUCAACCAGAAAGUCUGUAAUCAUUUUAAGGGAA [A51U U139A] | 1.14
GUUAACGGUCAUAGGCCAUGGAAACUAGGAGCACCAUUUCGCUGCCAGUGACGAAAUGAACAAAGAUAAUCUGGGCCAGGCAGGCAUCAAAAGAAAUAGUCUUGCGCUCAACCAGAAAGUCUGUAAUCAUUUUAAGGGUA [A52C A67U] | 1.67
GUUAACGGUCAUAGGCCAUGGAAACUAGGAGCACCAUUUCGCUGCCAGUGUAGAAAUGAACAAAGAAAAUCUGUGCCAGGCAGGCAUCAAAAGAAAUAGUCUUGCGCUCAACCAGAAAGUCUGUAAUCAUUUUAAGGGUA [A51U G74U] | 0.25
GUUAACGGUCAUAGGCCAUGGAAACUAGGAGCACCAUUUCGCUGCCAGUGUAGAAAUGAACAAAGAAAAUCUGGGCCAGGCAGGCAUCAAAAGAAAUAGUUUUGCGCUCAACCAGAAAGUCUGUAAUCAUUUUAAGGGUA [A51U C101U] | 0.72
GUUAACGGUCAUAGGCCAUGGAAACUAGGAGCACCAUUUCGCUGCCAGUGUAGAAAUGAACAAAGAAAAUCUGGGCCAGGCAGGCAUCAAAAGAAAUAGUCUUGCGCUCGACCAGAAAGUCUGUAAUCAUUUUAAGGGUA [A51U A110G] | 0.23

From the RNAGym collection of RNA variant scans (doi:10.7554/elife.90254)
